Values of other authors, collected in patent US9040062B2, “Preparation for treatment of spinal cord injury” (SUMITOMO DAINIPPON PHARMA CO., LTD., priority 2010, dated 2015).

Test system: cultural neuron
Conditions: short time

B1: semaphorin 3A: endogenous protein that retracts the nerve growth cone and suppresses axonal growth (protein, UniProt Q14563 21-771, looked up)
Semaphorin-3A: NYQNGKNNVPRLKLSYKEMLESNNVITFNGLANSSSYHTFLLDEERSRLYVGAKDHIFSFDLVNIKDFQKIVWPVSYTRRDECKWAGKDILKECANFIKVLKAYNQTHLYACGTGAFHPICTYIEIGHHPEDNIFKLENSHFENGRGKSPYDPKLLTASLLIDGELYSGTAADFMGRDFAIFRTLGHHHPIRTEQHDSRWLNDPKFISAHLISESDNPEDDKVYFFFRENAIDGEHSGKATHARIGQICKNDFGGHRSLVNKWTTFLKARLICSVPGPNGIDTHFDELQDVFLMNFKDPKNPVVYGVFTTSSNIFKGSAVCMYSMSDVRRVFLGPYAHRDGPNYQWVPYQGRVPYPRPGTCPSKTFGGFDSTKDLPDDVITFARSHPAMYNPVFPMNNRPIVIKTDVNYQFTQIVVDRVDAEDGQYDVMFIGTDVGTVLKVVSIPKETWYDLEEVLLEEMTVFREPTAISAMELSTKQQQLYIGSTAGVAQLPLHRCDIYGKACAECCLARDPYCAWDGSACSRYFPTAKRRTRRQDIRNGDPLTHCSDLHHDNHHGHSPEERIIYGVENSSTFLECSPKSQRALVYWQFQRRNEERKEEIRVDDHIIRTDQGLLLRSLQQKDSGNYLCHAVEHGFIQTLLKVTLEVIDTEHLEELLHKDDDGDGSKTKEMSNSMTPSQKVWYRDFMQLINHPNLNTMDEFCEQVWKRDRKQRRQRPGHTPGNSNKWKHLQENKKGRNRRTHEFERAPRSV
  concentration inducing growth cone retraction: 10 pM
